Assay results: patent US6491908
Like-named read-outs stand apart in the source and are kept apart here.

What was measured:
Test in all cases: cell-based or functional assay
[1] = target: mouse class I MHC D^d (full length, without signaling molecule) (mouse) (UniProt P01900)
[2] = target: D^d/zeta chimera (mouse class I MHC D^d fused to the murine T cell receptor zeta chain) (mouse) (UniProt P24161)
[3] = target: mouse class I MHC D^d (full length, without signaling molecule) (mouse) (UniProt P01900); remark: listed apart in the source
[4] = target: D^d/zeta chimera (mouse class I MHC D^d fused to the murine T cell receptor zeta chain) (mouse) (UniProt P24161); remark: listed apart in the source
[5] = target: CD3 portion of the T cell receptor on Jurkat cells (human) (UniProt P07766)
[6] = target: CD3 portion of the T cell receptor on Jurkat cells (human) (UniProt P07766); remark: listed apart in the source

Chain of CD3 portion of the T cell receptor on Jurkat cells (human) (P07766 23-207): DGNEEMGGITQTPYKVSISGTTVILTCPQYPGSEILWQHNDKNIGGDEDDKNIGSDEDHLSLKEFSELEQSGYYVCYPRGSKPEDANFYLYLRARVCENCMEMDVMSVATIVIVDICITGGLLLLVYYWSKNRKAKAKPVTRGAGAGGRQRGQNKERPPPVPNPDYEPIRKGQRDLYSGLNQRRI
Chain of mouse class I MHC D^d (full length, without signaling molecule) (mouse) (P01900 25-365): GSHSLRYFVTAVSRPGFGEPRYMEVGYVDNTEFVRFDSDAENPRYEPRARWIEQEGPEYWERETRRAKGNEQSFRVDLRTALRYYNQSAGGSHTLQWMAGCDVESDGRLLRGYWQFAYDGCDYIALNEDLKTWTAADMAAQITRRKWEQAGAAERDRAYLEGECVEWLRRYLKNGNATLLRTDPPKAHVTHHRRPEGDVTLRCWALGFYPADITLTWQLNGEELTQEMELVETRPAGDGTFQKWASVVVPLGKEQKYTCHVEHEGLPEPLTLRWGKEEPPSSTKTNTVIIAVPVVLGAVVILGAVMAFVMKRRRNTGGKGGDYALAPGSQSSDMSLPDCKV

| Proliferation (CPM) of CTLL-2 cells (IL-2 in supernatant of #19 (D^d) Jurkat cells), with PMA [1] | Proliferation (CPM) of CTLL-2 cells (IL-2 in supernatant of #19 (D^d) Jurkat cells), without PMA [1] | Proliferation (CPM) of CTLL-2 cells (IL-2 in supernatant of J11-6 (D^d/zeta) Jurkat cells), with PMA [2] | Proliferation (CPM) of CTLL-2 cells (IL-2 in supernatant of J11-6 (D^d/zeta) Jurkat cells), without PMA [2] | cellular proliferation ([3H]TdR) of spleen lymphoid cells of pD^d1 (D^d) transgenic mice, anti-D^d + anti-CD8 + anti-CD3 mAbs together [3] | cellular proliferation ([3H]TdR) of spleen lymphoid cells of pD^d1 (D^d) transgenic mice, anti-D^d + anti-CD8 mAbs together [3] | cellular proliferation ([3H]TdR) of spleen lymphoid cells of pD^d1 (D^d) transgenic mice, anti-D^d mAb alone [3] | Proliferation (CPM) of CTLL-2 cells (IL-2 in supernatant of J11-6 (D^d/zeta) Jurkat cells), with PMA [4] | Proliferation (CPM) of CTLL-2 cells (IL-2 in supernatant of J11-6 (D^d/zeta) Jurkat cells), without PMA [4] | cellular proliferation ([3H]TdR) of spleen lymphoid cells of D^d/zeta transgenic mice, anti-D^d + anti-CD8 + anti-CD3 mAbs together [4] | cellular proliferation ([3H]TdR) of spleen lymphoid cells of D^d/zeta transgenic mice, anti-D^d + anti-CD8 mAbs together [4] | cellular proliferation ([3H]TdR) of spleen lymphoid cells of D^d/zeta transgenic mice, anti-D^d mAb alone [4] | fold enhancement of proliferation over the D^d alone expressing cells [4] | Proliferation (CPM) of CTLL-2 cells (IL-2 in supernatant of #19 (D^d) Jurkat cells), with PMA [5] | Proliferation (CPM) of CTLL-2 cells (IL-2 in supernatant of #19 (D^d) Jurkat cells), without PMA [5] | Proliferation (CPM) of CTLL-2 cells (IL-2 in supernatant of untransfected Jurkat cells), with PMA [6] | Proliferation (CPM) of CTLL-2 cells (IL-2 in supernatant of untransfected Jurkat cells), without PMA [6] | Substance |
| --- | --- | --- | --- | --- | --- | --- | --- | --- | --- | --- | --- | --- | --- | --- | --- | --- | --- |
| 5520 CPM | 492 CPM | 16700 CPM | 361 CPM | 25000 | 1240 | 897 | 26800 CPM | 338 CPM | 253000 | 242000 | 303000 | 10 to 300 fold |  |  |  |  | anti-D^d monoclonal antibody (34-2-12) |
|  |  |  |  |  |  |  |  |  |  |  |  |  | 10900 CPM | 9530 CPM | 2200 CPM | 1180 CPM | OKT3, an anti-CD3 antibody |
